From the nanobody polyreactivity screen of Harvey et al. (2022) come the findings set out here.

The series is described as follows: yeast display, Sf9 membrane polyspecificity reagent, FACS + sequencing; frameworks hold sequencing errors. An outline of the steps: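 In a synthetic yeast display library (Saccharomyces cerevisiae BJ5465), nanobody expression was induced with galactose for 36–48 hours. FACS gates were set low and high (top ~1%) using anti-HA fluorescence for expression and streptavidin fluorescence for binding of the Sf9 membrane reagent. Each polyreactivity label is drawn from the gate of origin.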
Consider “QVQLVESGGGLVQAGGSLRLSCAASGSIFTVYAMGWYRQAPGKERELVAAITRNGGRTYYADSVKGRFTISRDNAKNTVYLQMNSLKPEDTAVYYCAAPGLYSRLDYWGQGTQVTVSS”, for which the “polyreactivity (PSR sort gate)” value is given as “high polyreactivity”.
With “QVQLVESGGGLVQAGGSLRLSCAASGSIFTVYAMGWYRQAPGKERELVATITTGGSTNYADSVKGRFTISRDNAKTTVYLQMNSLKPEDTAVYYCAATYWSWISLRFYWGQGTQVTVSS” the entry was “low polyreactivity”; with “QVQLVESGGGLVQAGGSLRLSCAASGSIFTVYAMGWYRQAPGKESELVAGITRRGSTYYADSVKGRFTISRDNAKNTFYLLMNRLKPEDTAVYYCAASRWVLESSGRVNWYDYWGQVTQVTVSS”, “low polyreactivity”.
With “QVQLVESGGGLVQAGGSLRLSCAASGSIFTWNGMGWYRQAPGKERELVAAISGSGGTTYADSVKGRFTISRDNAKNTVYLQMNSLKPEDTAVYYCARRVWVRDYPFGYARYGYWGQGTQVTVSS” the entry was “low polyreactivity”; with “QVQLVESGGGLVQAGGSLRLSCAASGSIFTWYVMGWYRQAPGKERELVAAITSGGRTYYADSVKGRFTISRDNAKKTVYLQMNSLKPEDTAVYYCAADSIGRLWGYGYWGQGTQVTVSS”, “high polyreactivity”.
For the sequence “QVQLVESGGGLVQAGGSLRLSCAASGSIFTYNAMGWYRQAPGKERELVAAISTSGGSTYYADSVKGRFTISRDNAKNTVYLQMNSLKPEDTAVYYCAAEYYVYPFWYGYWGQGTQVTVSS”, the “polyreactivity (PSR sort gate)” value is “high polyreactivity”.
With “QVQLVESGGGLVQAGGSLRLSCAASGSIFTYYAMGRYRQAPGKDRQLVAAISSNGGSTYYADSVKGRFTISRDNAKNTVYLQMNSLKPEDTAVYYCATVVNTWYQNGYEYWGQGTQVTVSS” the entry was “low polyreactivity”; with “QVQLVESGGGLVQAGGSLRLSCAASGSIFTYYAMGWYRQAPGKEMELVARIDWNGGSTRYADSVKGRFTISRDNAKNTVYLQMNSLKPEYTAVYYCAADWDYAPYFDPDLLDYWGQGTQVTVSS”, “low polyreactivity”.
Regarding “QVQLVESGGGLVQAGGSLRLSCAASGSIFTYYAMGWYRQAPGKERELVAAITSTGGSTYYADSVKGRFTISRDNAKNTVYLQMNSLKPEDTAVYYCATDYGYYDYWGQGTQVTVSS”, the “polyreactivity (PSR sort gate)” value is listed as “low polyreactivity”.
With “QVQLVESGGGLVQAGGSLRLSCAASGSIFTYYAMGWYRQAPGKERELVAGITRGGSTYYAESVKGRFTISRDNAKNTVYLQMNSLKPEDTAVYYCNARWVLFYTGDGQEHDYWGQGTQVTVSS” the entry was “low polyreactivity”; with “QVQLVESGGGLVQAGGSLRLSCAASGSIFTYYDMGWYRQAPGKEREWVAGISRRGSTYYADSVKGRFTISRDNAKNTVYLQMNSLKPEDTAVYYCAADPWVGTLYPRVGYWGQGTQVTVSS”, “low polyreactivity”; with “QVQLVESGGGLVQAGGSLRLSCAASGSIFTYYTMGLYRQAPGKERELVADITGGGSSTYYADSVKGRFTISRDNAKNTVYLQMNSLKPEDTAVYYCAADKYWAQNDYWGQGTQVTVSS”, “low polyreactivity”.
With “QVQLVESGGGLVQAGGSLRLSCAASGSIFTYYTMGWYRQAPGKERELVAAIRWSAGRTYYADSVKGRFTISRDNAKNTVYLQMNSLKPEDTAVYYCAAAERLRHGLKFDYWGQGTQVTVSS”, the “polyreactivity (PSR sort gate)” value is reported as “high polyreactivity”.
With “QVQLVESGGGLVQAGGSLRLSCAASGSIFVDYAMGWYRQAPGKERELVAAISWRGGSTYYADSVKGRFTISRDNAKNTVYLQMNSLKPEDTAVYYCAALTPFKYDYWGQGTKVTVSS” the entry was “low polyreactivity”.
Regarding “QVQLVESGGGLVQAGGSLRLSCAASGSIFVFYAMGWYRQAPGKERELVAAITRSGGRTYADSVKGRFTISRDNAKNTVYLQMYSLKPEDTAVYYCNAGTYWYNGRYTRSAHDYWGQGTQVTVSS”, the “polyreactivity (PSR sort gate)” value is listed as “high polyreactivity”.
Take “QVQLVESGGGLVQAGGSLRLSCAASGSIFVGHAMGWYRQAPGKERELVATISRSGGSTYYADSVKGRFTISRDNAKNTVYLQMNSLKPEDTAVYYCAKTPYRRYSYGGYTYRTYDYWGQGTQVTVSS”: the “polyreactivity (PSR sort gate)” value is on record as “low polyreactivity”.
With “QVQLVESGGGLVQAGGSLRLSCAASGSIFVGNAMGWDRQAPGKERELVATLSWSGGSTYYADSVKGRFTISRDNAKNTVDLQMNSLNPEDTAVYYCAKTPYRRYRYGGYTYRTYDYWGQGTQVTVSS” the entry was “low polyreactivity”; with “QVQLVESGGGLVQAGGSLRLSCAASGSIFVGNAMGWSRQAPGKERELVATISRGARRKYADSVKGRFTISRDNAKNTVYLQMNSLIPEDTAVYYCNKVTSYYVFYTPYYSWGQGTQVTVSS”, “low polyreactivity”.
With “QVQLVESGGGLVQAGGSLRLSCAASGSIFVGYAMGWYRQAPGKERDLVAAIDSTVSTYYADSVKGRFTISRDNAKNTVYLQMNSLKPEDTAVYYCAAYPRPDIGYTDGYVWYEFDYWGQGTQVTVSS” the entry was “low polyreactivity”.
With “QVQLVESGGGLVQAGGSLRLSCAASGSIFVGYAMGWYRQAPGKERELVAAISTRGGSTYYADSVKGRFTISRDNAKNTVYLQMNSLKPEDTAVYDCAADYLDSTYGYVYGWDDYWGQGTQVTVSS” the entry was “low polyreactivity”; with “QVQLVESGGGLVQAGGSLRLSCAASGSIFVGYAMGWYRQAPGKERELVASITTRGGSTHYADSVKGRFTISRDNAKNTVYLQMNSLKPEDTAVYYCAADSLSNGVLQYLPGYDYWGQGTQVTVSS”, “low polyreactivity”.
“QVQLVESGGGLVQAGGSLRLSCAASGSIFVGYTMGWYRQAPGKERELVAAITSTGGSTSYADSVKGRFTISRDNAKNTVYLQMNSLKPEDTAVYYCAARGRGKTTSVAYYYWGQGTQVTVSS”: the “polyreactivity (PSR sort gate)” value was “high polyreactivity”.
With “QVQLVESGGGLVQAGGSLRLSCAASGSIFVGYTMGWYRQAPGKERELVADITYNGGTTYYADSVKGRFTISRDNAKNTVYLQMNSLKPEDSAVYYCAADYYYGWFPVYYWGQGTQVTVSS”, the “polyreactivity (PSR sort gate)” value is “high polyreactivity”.
With “QVQLVESGGGLVQAGGSLRLSCAASGSIFVGYVMGWYRQAPGKERELVAAISKSGSRTYYADSVKGRFTISRDNAKYTVYLQMNSLKPEDTAVYYCATAGYDADDYWGQGTQVTVSS” the entry was “high polyreactivity”; with “QVQLVESGGGLVQAGGSLRLSCAASGSIFVHNTMGWYRQAPGKERELVAAITRSVGRTYYADSVKGRFTISRDNAKNTVYLQMNSLKPEDTAVYYCAARKNYGSRLSYEYWGQGTQVTVSS”, “high polyreactivity”; with “QVQLVESGGGLVQAGGSLRLSCAASGSIFVHYAMGWYRQAPGKERELVASISTSGGRTRYADSVKGRFTISRDNAKNTVYLQMNSLKPEDTAVYYCAALRWGRRYDYWGQGTQVTVSS”, “high polyreactivity”.
With “QVQLVESGGGLVQAGGSLRLSCAASGSIFVIYAMGWYRQAPGKERELVAAISRSGGRTYYADSVKGRFTISRDNAKNTVYLQMNSLKPEDTAVYYCAAEGSTYQGAPGVYYWGQGTQVTVSS” the entry was “high polyreactivity”; with “QVQLVESGGGLVQAGGSLRLSCAASGSIFVIYAMGWYRQAPGKERELVAAITWNGGSTFYADSVKGRFTISRDNAKNTVYLQMNSLKPEDTAVYYCNAVAVSNSGWEYDYWGQGTQVTVSS”, “low polyreactivity”; with “QVQLVESGGGLVQAGGSLRLSCAASGSIFVIYAMGWYRQAPGKERELVAAITWNGGSTVYADSVKGRFTISRDNAKNTVYLQMNSLKPEDTAVYSCNAVAVSNSGWEYDYWGQGTQVTVSS”, “low polyreactivity”.
For the sequence “QVQLVESGGGLVQAGGSLRLSCAASGSIFVIYTMGWYRQAPGKERELVAVITWSTGNTYYADSVKGRFTISRDNAKNTVYLQMNSLKPEDTAVYYCAARTTSRWRSGAYYYWGQGTQVTVSS”, the “polyreactivity (PSR sort gate)” value is “high polyreactivity”.
For “QVQLVESGGGLVQAGGSLRLSCAASGSIFVKNVMGWYRQAPGKERELVAAITRGGRTYYADSVKGRFTISRDNAKNTVYLQMNSLKPEDTAVYYCNAYRLSYTYGYWGQGTQVTVSS”, the “polyreactivity (PSR sort gate)” value is given as “high polyreactivity”.
With “QVQLVESGGGLVQAGGSLRLSCAASGSIFVKYAMGWYRQAPGKERELVAAISRSGTRTYYADSVKGRFTISRDNAKNTVYLQMNSLKPEDTAVYYCAAAATTVRAYEYWGQGTQVTLSS” the entry was “high polyreactivity”; with “QVQLVESGGGLVQAGGSLRLSCAASGSIFVLYAMGWYRQAPGKERELVAAITTGGGTNYADSVKGRFTISRDNAKNTVYLQMNSLKPEDTAVYYCNADAYGTPEFTSYAVRYDYWGQGTQVTVSS”, “low polyreactivity”; with “QVQLVESGGGLVQAGGSLRLSCAASGSIFVNNALGWDRQAPGKDWELVAAISSRGGSTYYADSVKGRFTISRDNAKNTVYLQMHSLKPEDTAVYYCAAEYDGPYYSFYPEQRYYWGQGNQVTVSS”, “low polyreactivity”.
For “QVQLVESGGGLVQAGGSLRLSCAASGSIFVNNAMGWYRQAPGKERELVAAIRRSGGNTYYADSVKGRFTISRDNAKNTVYLQLNSLKPEDTAVYYCNVVRRSDSIRAKSRDYWGQGTQVTVSS”, the “polyreactivity (PSR sort gate)” value is on record as “high polyreactivity”.
With “QVQLVESGGGLVQAGGSLRLSCAASGSIFVNNAMGWYRQAPGKERELVAAISRSGTRTYYADSVKGRFTISRDNAKNTVYLQMNSLKPEDTAVYYCAVDYYYRMDYWGQGTQVTVSS” the entry was “high polyreactivity”; with “QVQLVESGGGLVQAGGSLRLSCAASGSIFVNNAMGWYRQAPGKERELVAAISSRSSRTFYADSVKGRFTISRDNAKISVYFHMNSLKPVDTGVYYWAVKKRSPHGDYCGQGTQVTVSS”, “high polyreactivity”; with “QVQLVESGGGLVQAGGSLRLSCAASGSIFVNNAMGWYRQAPGKERELVAAISSRSSRTFYADSVKGRFTISRDNAKNTVYLQMNSLKPDDNAVFYCAVNNRAPDGEYWGLGTQVTVSS”, “high polyreactivity”.
Turning to “QVQLVESGGGLVQAGGSLRLSCAASGSIFVNNAMGWYRQAPGKERELVAAISSRSSRTFYADSVKWRFTISRDNAKNTVYLQMNCLKPEDTAVYSCAVKKRAPDGDYWGQGTQVTVSS”, the “polyreactivity (PSR sort gate)” value was “high polyreactivity”.
With “QVQLVESGGGLVQAGGSLRLSCAASGSIFVNYAMGWYRQAPGKERELVAAISGRGGSTYYADSVKGRFTISRDNAKNTVYLQMNSLKPEDTAVFYCARYGYYGHDWGQGTQVTVSS”, the “polyreactivity (PSR sort gate)” value is given as “high polyreactivity”.
With “QVQLVESGGGLVQAGGSLRLSCAASGSIFVNYAMGWYRQAPGKERELVAAISTGGGRTFYADSVKGRFTISRDNAKNTVYLQMNSLKPEDTAVYYCNNLGRTEYDYWGQGTQVTVSS” the entry was “high polyreactivity”.
